In IntAct's records for PubMed 29691401:

B1: "Lethal(3)malignant brain tumor-like protein 3" (Homo sapiens), Q96JM7 (parent)
chain: MTESASSTSGQEFDVFSVMDWKDGVGTLPGSDLKFRVNEFGALEVITDENEMENVKKATATTTWMVPTAQEAPTSPPSSRPVFPPAYWTSPPGCPTVFSEKTGMPFRLKDPVKVEGLQFCENCCQYGNVDECLSGGNYCSQNCARHIKDKDQKEERDVEEDNEEEDPKCSRKKKPKLSLKADTKEDGEERDDEMENKQDVRILRGSQRARRKRRGDSAVLKQGLPPKGKKAWCWASYLEEEKAVAVPAKLFKEHQSFPYNKNGFKVGMKLEGVDPEHQSVYCVLTVAEVCGYRIKLHFDGYSDCYDFWVNADALDIHPVGWCEKTGHKLHPPKGYKEEEFNWQTYLKTCKAQAAPKSLFENQNITVIPSGFRVGMKLEAVDKKNPSFICVATVTDMVDNRFLVHFDNWDESYDYWCEASSPHIHPVGWCKEHRRTLITPPGYPNVKHFSWDKYLEETNSLPAPARAFKVKPPHGFQKKMKLEVVDKRNPMFIRVATVADTDDHRVKVHFDGWNNCYDYWIDADSPDIHPVGWCSKTGHPLQPPLSPLELMEASEHGGCSTPGCKGIGHFKRARHLGPHSAANCPYSEINLNKDRIFPDRLSGEMPPASPSFPRNKRTDANESSSSPEIRDQHADDVKEDFEERTESEMRTSHEARGAREEPTVQQAQRRSAVFLSFKSPIPCLPLRWEQQSKLLPTVAGIPASKVSKWSTDEVSEFIQSLPGCEEHGKVFKDEQIDGEAFLLMTQTDIVKIMSIKLGPALKIFNSILMFKAAEKNSHNEL

Variants of: B1
Conditions: with dnmt1_human DNMT1, P26358
Sequence of dnmt1_human DNMT1, P26358 (P26358 whole entry): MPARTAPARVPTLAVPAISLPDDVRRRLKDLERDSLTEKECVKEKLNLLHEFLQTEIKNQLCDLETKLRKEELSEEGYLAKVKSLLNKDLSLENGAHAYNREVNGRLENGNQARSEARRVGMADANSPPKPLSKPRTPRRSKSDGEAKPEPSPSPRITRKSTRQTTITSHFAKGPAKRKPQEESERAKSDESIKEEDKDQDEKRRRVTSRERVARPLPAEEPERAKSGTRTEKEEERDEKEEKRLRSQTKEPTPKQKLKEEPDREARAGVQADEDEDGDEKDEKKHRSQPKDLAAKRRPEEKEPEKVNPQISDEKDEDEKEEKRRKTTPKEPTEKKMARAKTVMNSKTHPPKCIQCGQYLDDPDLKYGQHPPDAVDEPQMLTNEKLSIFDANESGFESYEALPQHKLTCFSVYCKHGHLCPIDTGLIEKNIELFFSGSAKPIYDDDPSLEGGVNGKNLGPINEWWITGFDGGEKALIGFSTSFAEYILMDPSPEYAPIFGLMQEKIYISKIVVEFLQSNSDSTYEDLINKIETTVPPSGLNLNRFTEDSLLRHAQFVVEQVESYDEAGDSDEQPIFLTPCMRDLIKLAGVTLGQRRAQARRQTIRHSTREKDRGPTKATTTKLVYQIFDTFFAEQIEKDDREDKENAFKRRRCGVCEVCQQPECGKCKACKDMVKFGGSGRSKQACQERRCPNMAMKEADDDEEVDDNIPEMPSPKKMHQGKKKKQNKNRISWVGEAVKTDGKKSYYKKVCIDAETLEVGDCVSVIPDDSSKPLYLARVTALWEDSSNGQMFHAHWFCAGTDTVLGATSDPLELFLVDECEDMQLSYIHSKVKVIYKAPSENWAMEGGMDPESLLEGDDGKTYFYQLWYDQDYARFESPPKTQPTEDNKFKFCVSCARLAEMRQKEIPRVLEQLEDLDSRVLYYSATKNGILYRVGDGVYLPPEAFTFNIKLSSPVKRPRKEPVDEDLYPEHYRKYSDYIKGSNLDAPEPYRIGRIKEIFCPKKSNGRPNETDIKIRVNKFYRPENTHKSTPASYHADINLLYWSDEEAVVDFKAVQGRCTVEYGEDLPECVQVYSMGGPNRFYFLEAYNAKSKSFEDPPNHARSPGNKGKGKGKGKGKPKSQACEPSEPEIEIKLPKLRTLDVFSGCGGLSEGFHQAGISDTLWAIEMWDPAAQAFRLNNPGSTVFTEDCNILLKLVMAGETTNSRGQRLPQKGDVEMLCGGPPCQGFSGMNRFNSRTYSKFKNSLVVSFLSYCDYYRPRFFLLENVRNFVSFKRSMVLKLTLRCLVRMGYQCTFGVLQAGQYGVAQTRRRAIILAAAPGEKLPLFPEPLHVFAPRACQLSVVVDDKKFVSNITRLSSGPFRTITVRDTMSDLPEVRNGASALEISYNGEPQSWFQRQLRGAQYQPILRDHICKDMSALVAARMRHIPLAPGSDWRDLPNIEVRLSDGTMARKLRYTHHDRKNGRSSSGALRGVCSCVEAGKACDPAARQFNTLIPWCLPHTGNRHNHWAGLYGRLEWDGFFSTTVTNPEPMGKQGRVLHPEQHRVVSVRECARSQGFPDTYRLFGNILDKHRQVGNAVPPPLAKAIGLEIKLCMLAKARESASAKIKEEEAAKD

| Variant | effect of a mutation on the interaction |
| --- | --- |
| D381N | disrupting interaction strength |

Variants of: B1
Conditions: with dnmt1_human DNMT1, P26358
Remark: another data set of the same source

| Variant | effect of a mutation on the interaction |
| --- | --- |
| D381N | decreasing interaction strength |
